Experimental data reported in the supplement of paper PMC10724198.
± gives the standard deviation of the averaged measurements.

Assays:
Saccharomyces cerevisiae [1] = experiment: protein stability index of tFT-peptide fusion (C-terminal peptide) (PSI (0-1 scale)); higher = more stable (slower turnover)
Experimental: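 MPS profiling in S. cerevisiae of the tFT-X12 degron library: putative degron peptides plus stable controls, 12 aa, fused to the C-terminus of a sfGFP-mCherry timer. Cells are FACS-sorted into 8 mCherry/sfGFP bins and deep-sequenced. PSI runs from 0 (unstable) to 1 (stable). Backgrounds are wild type, das1Δ and doa10Δ at 30 °C, and wild type, das1Δ, cdc34-1 and cdc53-1 at 37 °C; 2-3 technical replicates each.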

Saccharomyces cerevisiae [2] = experiment: as above; conditions: genetic background: wild type; temperature: 30 C
[3] = genetic background: cdc34-1, temperature: 37 C
[4] = genetic background: cdc53-1, temperature: 37 C
[5] = genetic background: das1 deletion, temperature: 30 C
[6] = genetic background: das1 deletion, temperature: 37 C
[7] = genetic background: doa10 deletion, temperature: 30 C
[8] = genetic background: wild type, temperature: 30 C
[9] = genetic background: wild type, temperature: 37 C
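Also: PSI is a weighted mean of sequencing reads over stability bins, variants kept only with over 10 reads, mCherry proximal and sfGFP distal, peptide attached via GGGS linker.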

## GSMGGVGVLGGD
Saccharomyces cerevisiae [1]; [3]
  protein stability index: 0.544 ± 0.071
Saccharomyces cerevisiae [1]; [4]
  protein stability index: 0.6535 ± 0.0059
Saccharomyces cerevisiae [1]; [5]
  protein stability index: 0.467 ± 0.0086
Saccharomyces cerevisiae [1]; [6]
  protein stability index: 0.5571 ± 0.0043
Saccharomyces cerevisiae [1]; [7]
  protein stability index: 0.486 ± 0.018
Saccharomyces cerevisiae [1]; [8]
  protein stability index: 0.476 ± 0.013
Saccharomyces cerevisiae [1]; [9]
  protein stability index: 0.552 ± 0.018

## LLSLLLDPLLCL
Saccharomyces cerevisiae [1]; [3]
  protein stability index: 0.582 ± 0.024
Saccharomyces cerevisiae [1]; [4]
  protein stability index: 0.624 ± 0.0029
Saccharomyces cerevisiae [1]; [5]
  protein stability index: 0.522 ± 0.026
Saccharomyces cerevisiae [1]; [6]
  protein stability index: 0.634 ± 0.015
Saccharomyces cerevisiae [1]; [7]
  protein stability index: 0.521 ± 0.022
Saccharomyces cerevisiae [1]; [8]
  protein stability index: 0.534 ± 0.024
Saccharomyces cerevisiae [1]; [9]
  protein stability index: 0.6166 ± 0.0013

## SDGGVVRGGCRG
Saccharomyces cerevisiae [1]; [3]
  protein stability index: 0.592 ± 0.083
Saccharomyces cerevisiae [1]; [4]
  protein stability index: 0.787 ± 0.012
Saccharomyces cerevisiae [1]; [5]
  protein stability index: 0.519 ± 0.061
Saccharomyces cerevisiae [1]; [6]
  protein stability index: 0.714 ± 0.1
Saccharomyces cerevisiae [1]; [7]
  protein stability index: 0.549 ± 0.081
Saccharomyces cerevisiae [1]; [8]
  protein stability index: 0.512 ± 0.046
Saccharomyces cerevisiae [1]; [9]
  protein stability index: 0.598 ± 0.016

## PLRISQLDVVRS
Saccharomyces cerevisiae [2]
  protein stability index: 0.655 ± 0.045

## RLIIRYESYTSD
Saccharomyces cerevisiae [2]
  protein stability index: 0.709 ± 0.013

## GVRKGEESGVGW
Saccharomyces cerevisiae [2]
  protein stability index: 0.717 ± 0.0085

## PVETVRCCLACP
Saccharomyces cerevisiae [2]
  protein stability index: 0.64643 ± 0.00047

## PTTLTTPTPPHR
Saccharomyces cerevisiae [2]
  protein stability index: 0.7161 ± 0.0022

## RLLLSRCSFLPT
Saccharomyces cerevisiae [2]
  protein stability index: 0.663 ± 0.03

## VWRSTVRVSRAG
Saccharomyces cerevisiae [2]
  protein stability index: 0.763 ± 0.051

## PPNPSTPSACPP
Saccharomyces cerevisiae [2]
  protein stability index: 0.717 ± 0.052

## VGNPHKRGWRAR
Saccharomyces cerevisiae [2]
  protein stability index: 0.60903 ± 0.00027

## PTYTPAFPPVSS
Saccharomyces cerevisiae [2]
  protein stability index: 0.699 ± 0.018

## PPPPLPPPPVLT
Saccharomyces cerevisiae [2]
  protein stability index: 0.7 ± 0.051

## PPSRPPPARREP
Saccharomyces cerevisiae [2]
  protein stability index: 0.7 ± 0.022

## RVGWCGGGRGGR
Saccharomyces cerevisiae [2]
  protein stability index: 0.658 ± 0.048

## VWVVGADEDAVR
Saccharomyces cerevisiae [2]
  protein stability index: 0.698 ± 0.03

## SRVARWRSPGCC
Saccharomyces cerevisiae [2]
  protein stability index: 0.6474 ± 0.0012

## SKLRDFHVLVTH
Saccharomyces cerevisiae [2]
  protein stability index: 0.611 ± 0.011

## VCLFWGVSAGCK
Saccharomyces cerevisiae [2]
  protein stability index: 0.65 ± 0.04

## LPPFSSPLSSLR
Saccharomyces cerevisiae [2]
  protein stability index: 0.693 ± 0.016

## SSLERVHVCPLE
Saccharomyces cerevisiae [2]
  protein stability index: 0.64 ± 0.079

## PSTPSPSCAPPS
Saccharomyces cerevisiae [2]
  protein stability index: 0.7087 ± 0.0017

## SLYERYGRFNSS
Saccharomyces cerevisiae [2]
  protein stability index: 0.656 ± 0.027

## LCCTLPSRGVIV
Saccharomyces cerevisiae [2]
  protein stability index: 0.5993 ± 0.0059

## VWFEAGLGWFFL
Saccharomyces cerevisiae [2]
  protein stability index: 0.721 ± 0.047

## KKIKKKRTEPQP
Saccharomyces cerevisiae [2]
  protein stability index: 0.694 ± 0.02

## WGGGGGVWGHVV
Saccharomyces cerevisiae [2]
  protein stability index: 0.603 ± 0.034

## LMKSPGGTLTIR
Saccharomyces cerevisiae [2]
  protein stability index: 0.71 ± 0.053

## SQQFGSILPGEL
Saccharomyces cerevisiae [2]
  protein stability index: 0.694 ± 0.018

## FCGLCCDPNRVP
Saccharomyces cerevisiae [2]
  protein stability index: 0.708 ± 0.036

## EIKKKKSQTKKT
Saccharomyces cerevisiae [2]
  protein stability index: 0.67 ± 0.085

## SCRAIIDCMYNT
Saccharomyces cerevisiae [2]
  protein stability index: 0.611 ± 0.067

## GWSCRGVGGGLG
Saccharomyces cerevisiae [2]
  protein stability index: 0.708 ± 0.045

## DGCGFIGLSLLE
Saccharomyces cerevisiae [2]
  protein stability index: 0.731 ± 0.079

## SPTLPLTRRHPR
Saccharomyces cerevisiae [2]
  protein stability index: 0.718 ± 0.035

## LSGTLALVVFTR
Saccharomyces cerevisiae [2]
  protein stability index: 0.6464 ± 0.001

## FNVSNPVSLQTG
Saccharomyces cerevisiae [2]
  protein stability index: 0.641 ± 0.021

## MDHSGYWDISCG
Saccharomyces cerevisiae [2]
  protein stability index: 0.801 ± 0.099

## EGGFGSVLGGRG
Saccharomyces cerevisiae [2]
  protein stability index: 0.724 ± 0.058

## AGIFGGGRGGSV
Saccharomyces cerevisiae [2]
  protein stability index: 0.697 ± 0.0048

## LNDEKIKGKTTK
Saccharomyces cerevisiae [2]
  protein stability index: 0.732 ± 0.012

## LPVPPPPVSVAN
Saccharomyces cerevisiae [2]
  protein stability index: 0.554 ± 0.0089

## GGVAAVGGPWGN
Saccharomyces cerevisiae [2]
  protein stability index: 0.75 ± 0.052

## GGGCARRRGGRV
Saccharomyces cerevisiae [2]
  protein stability index: 0.6958 ± 0.0049

## VVISRTPAALES
Saccharomyces cerevisiae [2]
  protein stability index: 0.697 ± 0.013

## PPDRNPANTSCD
Saccharomyces cerevisiae [2]
  protein stability index: 0.638 ± 0.029

## EPEPALTSAPPA
Saccharomyces cerevisiae [2]
  protein stability index: 0.715 ± 0.023

## LLGSGTVSGCAG
Saccharomyces cerevisiae [2]
  protein stability index: 0.642 ± 0.04

## QCAPVFIAVCRL
Saccharomyces cerevisiae [2]
  protein stability index: 0.681 ± 0.14

## RLTALVYFISPL
Saccharomyces cerevisiae [2]
  protein stability index: 0.597 ± 0.017

## DSGVGLARSARG
Saccharomyces cerevisiae [2]
  protein stability index: 0.678 ± 0.018

## ELHPPIPYPSRP
Saccharomyces cerevisiae [2]
  protein stability index: 0.6773 ± 0.0047

## CQVTDYLVLDWG
Saccharomyces cerevisiae [2]
  protein stability index: 0.727 ± 0.038

## IPLLEALLQLAA
Saccharomyces cerevisiae [2]
  protein stability index: 0.562 ± 0.014

## VLTSRCGLLFVL
Saccharomyces cerevisiae [2]
  protein stability index: 0.62 ± 0.044

## SLCHLFYGSVEG
Saccharomyces cerevisiae [2]
  protein stability index: 0.668 ± 0.055

## SPSLVVRVSFEF
Saccharomyces cerevisiae [2]
  protein stability index: 0.595 ± 0.025

## RSTGFHRVSCGI
Saccharomyces cerevisiae [2]
  protein stability index: 0.72 ± 0.06

## WSSSVGIKGAWF
Saccharomyces cerevisiae [2]
  protein stability index: 0.707 ± 0.022

## EKSRSLACQHST
Saccharomyces cerevisiae [2]
  protein stability index: 0.6725 ± 0.0052

## RYNPPRGIHNDL
Saccharomyces cerevisiae [2]
  protein stability index: 0.651 ± 0.043

## CGRERIEGGGGD
Saccharomyces cerevisiae [2]
  protein stability index: 0.643 ± 0.1

## ARFVAGLTKVDV
Saccharomyces cerevisiae [2]
  protein stability index: 0.65 ± 0.029

## PVPRNRQRWREP
Saccharomyces cerevisiae [2]
  protein stability index: 0.663 ± 0.017

## LKDEERYKRRKV
Saccharomyces cerevisiae [2]
  protein stability index: 0.709 ± 0.016

## KIKKNKKKKRIN
Saccharomyces cerevisiae [2]
  protein stability index: 0.658 ± 0.026

## APRSPSLRSRHP
Saccharomyces cerevisiae [2]
  protein stability index: 0.743 ± 0.018

## WQGARLSSREGH
Saccharomyces cerevisiae [2]
  protein stability index: 0.694 ± 0.038

## EVALDRLKNRGG
Saccharomyces cerevisiae [2]
  protein stability index: 0.671 ± 0.028

## VPALLPLLPSPP
Saccharomyces cerevisiae [2]
  protein stability index: 0.712 ± 0.03

## PSPPAQSASLFF
Saccharomyces cerevisiae [2]
  protein stability index: 0.663 ± 0.02

## ISPTPPAPSRPS
Saccharomyces cerevisiae [2]
  protein stability index: 0.688 ± 0.015

## LNNAIAGGSVGI
Saccharomyces cerevisiae [2]
  protein stability index: 0.702 ± 0.074

## PSRRPLPHPPPP
Saccharomyces cerevisiae [2]
  protein stability index: 0.654 ± 0.045

## GPRVILALLSRR
Saccharomyces cerevisiae [2]
  protein stability index: 0.6842 ± 0.0067

## CLTGSVLVICGN
Saccharomyces cerevisiae [2]
  protein stability index: 0.551 ± 0.06

## WYGPKLVGGSIV
Saccharomyces cerevisiae [2]
  protein stability index: 0.722 ± 0.12

## LSYSLSSPRVFH
Saccharomyces cerevisiae [2]
  protein stability index: 0.7337 ± 0.0022

## GYETTQSGFLSS
Saccharomyces cerevisiae [2]
  protein stability index: 0.5887 ± 0.0022

## VRAGLAGGPGRV
Saccharomyces cerevisiae [2]
  protein stability index: 0.684 ± 0.024

## HHCGGRVLGAGG
Saccharomyces cerevisiae [2]
  protein stability index: 0.7073 ± 0.0056

## PHPTPGTPEPRD
Saccharomyces cerevisiae [2]
  protein stability index: 0.744 ± 0.17

## AVACGGASGCGC
Saccharomyces cerevisiae [2]
  protein stability index: 0.707 ± 0.071

## GPSVGWFPSGWS
Saccharomyces cerevisiae [2]
  protein stability index: 0.74212 ± 0.00021

## STCSTSQPPSPS
Saccharomyces cerevisiae [2]
  protein stability index: 0.663 ± 0.069

## SPLPPSPSPPTP
Saccharomyces cerevisiae [2]
  protein stability index: 0.725 ± 0.22

## RVDAWLEGKTVR
Saccharomyces cerevisiae [2]
  protein stability index: 0.734 ± 0.02

## LQLLPPGLRQLP
Saccharomyces cerevisiae [2]
  protein stability index: 0.679 ± 0.0079
